The source of these data is article PMC12205872, “ESSENTIAL MEIOTIC ENDONUCLEASE 1 is required for chloroplast development and DNA repair in rice”.

Data set [1] concerns the target T1, OsEME1-MBP (MBP fusion, used in MST) (Oryza sativa L. japonica cv. KY131, UniProt Q0J9J6 1-650).
T1 sequence: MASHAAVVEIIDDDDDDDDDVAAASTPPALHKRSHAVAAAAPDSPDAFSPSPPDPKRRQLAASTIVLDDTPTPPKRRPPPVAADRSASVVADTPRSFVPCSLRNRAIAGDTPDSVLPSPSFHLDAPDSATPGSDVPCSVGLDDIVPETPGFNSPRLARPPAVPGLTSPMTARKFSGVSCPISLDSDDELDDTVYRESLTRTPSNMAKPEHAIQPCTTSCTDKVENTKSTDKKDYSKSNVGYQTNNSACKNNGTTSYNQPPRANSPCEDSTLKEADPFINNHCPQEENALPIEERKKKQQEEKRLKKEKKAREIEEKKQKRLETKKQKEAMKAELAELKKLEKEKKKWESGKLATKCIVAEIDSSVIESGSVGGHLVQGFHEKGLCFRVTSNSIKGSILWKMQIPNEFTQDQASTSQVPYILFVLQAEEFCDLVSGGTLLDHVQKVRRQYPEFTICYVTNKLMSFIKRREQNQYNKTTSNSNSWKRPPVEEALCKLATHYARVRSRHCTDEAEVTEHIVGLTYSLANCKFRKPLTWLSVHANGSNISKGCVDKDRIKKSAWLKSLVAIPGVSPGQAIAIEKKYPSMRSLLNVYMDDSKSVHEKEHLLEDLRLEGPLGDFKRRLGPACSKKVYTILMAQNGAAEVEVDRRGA
The data set can be described thus: MST; 100 nM DNA, 30 C; substrate called Y-Flag in Methods; EMSA/cleavage: 25 mM Tris-HCl pH 7.5, 1 mM MgCl2, 100 mg/mL BSA (so in the source), 1 mM DTT, 5 mM ATP, 2.5 uM Cy5 substrate, 20 uM protein, 30 C, 15% TBE-PAGE after. The conditions noted are these: protein: recombinant; tags: MBP; splayed Y: X1 1-25 paired with X4 26-50; 25 nt unpaired 3' arm of X1 and 5' arm of X4. Background: A gel shift assay detects complexes by their altered migration in electrophoresis.

Data set [2] has as its target T2, OsMUS81 (MBP removed by TEVp) (Oryza sativa L. japonica cv. KY131, UniProt Q8GT06 1-660).
T2 sequence: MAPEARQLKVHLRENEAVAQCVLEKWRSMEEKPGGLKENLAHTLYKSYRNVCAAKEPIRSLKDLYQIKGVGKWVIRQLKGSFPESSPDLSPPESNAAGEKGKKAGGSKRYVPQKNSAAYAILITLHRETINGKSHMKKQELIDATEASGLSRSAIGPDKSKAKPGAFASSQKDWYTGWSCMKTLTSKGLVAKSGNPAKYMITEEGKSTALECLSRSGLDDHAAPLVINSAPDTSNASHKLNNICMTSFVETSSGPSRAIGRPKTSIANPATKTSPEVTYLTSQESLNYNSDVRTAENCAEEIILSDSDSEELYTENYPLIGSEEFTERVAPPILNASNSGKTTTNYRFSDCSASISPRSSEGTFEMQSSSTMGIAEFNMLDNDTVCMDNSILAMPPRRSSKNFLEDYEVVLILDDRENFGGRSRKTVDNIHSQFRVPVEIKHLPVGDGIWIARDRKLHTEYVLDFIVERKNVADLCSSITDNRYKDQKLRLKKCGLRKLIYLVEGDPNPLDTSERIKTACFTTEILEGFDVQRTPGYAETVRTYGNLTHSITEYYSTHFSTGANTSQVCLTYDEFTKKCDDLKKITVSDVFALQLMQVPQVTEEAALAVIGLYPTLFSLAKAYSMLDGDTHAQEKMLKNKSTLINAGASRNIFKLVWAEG
Put plainly: EMSA; 1 mM Mg2+, 5 mM ATP; not responsible for cleavage; EMSA/cleavage: 25 mM Tris-HCl pH 7.5, 1 mM MgCl2, 100 mg/mL BSA (so in the source), 1 mM DTT, 5 mM ATP, 2.5 uM Cy5 substrate, 20 uM protein, 30 C, 15% TBE-PAGE after. The following applies: protein: recombinant, tags: MBP cleaved by TEVp, label: Cy5 on X1 (3' end).

For data set [3], the target named is T3, OsEME1 (MBP removed by TEVp) (Oryza sativa L. japonica cv. KY131, UniProt Q0J9J6 1-650).
T3 sequence: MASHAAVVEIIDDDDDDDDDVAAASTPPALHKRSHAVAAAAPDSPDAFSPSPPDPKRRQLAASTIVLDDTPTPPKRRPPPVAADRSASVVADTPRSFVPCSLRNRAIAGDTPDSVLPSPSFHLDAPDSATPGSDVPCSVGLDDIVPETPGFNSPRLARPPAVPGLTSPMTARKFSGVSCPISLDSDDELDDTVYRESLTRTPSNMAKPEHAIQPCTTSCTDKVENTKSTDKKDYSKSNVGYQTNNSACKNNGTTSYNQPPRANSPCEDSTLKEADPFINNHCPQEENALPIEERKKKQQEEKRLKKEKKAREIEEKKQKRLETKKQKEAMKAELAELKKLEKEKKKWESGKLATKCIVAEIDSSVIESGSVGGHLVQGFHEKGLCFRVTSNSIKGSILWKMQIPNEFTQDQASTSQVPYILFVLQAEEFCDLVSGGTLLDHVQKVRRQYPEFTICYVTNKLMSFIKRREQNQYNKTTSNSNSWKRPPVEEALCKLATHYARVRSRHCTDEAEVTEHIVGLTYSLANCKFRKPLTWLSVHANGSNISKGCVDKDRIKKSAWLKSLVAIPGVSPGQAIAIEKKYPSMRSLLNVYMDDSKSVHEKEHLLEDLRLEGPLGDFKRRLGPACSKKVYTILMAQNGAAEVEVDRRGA
Put plainly: EMSA; 20 uM protein, 1 mM Mg2+, 5 mM ATP; EMSA/cleavage: 25 mM Tris-HCl pH 7.5, 1 mM MgCl2, 100 mg/mL BSA (so in the source), 1 mM DTT, 5 mM ATP, 2.5 uM Cy5 substrate, 20 uM protein, 30 C, 15% TBE-PAGE after. The following applies: protein: recombinant, tags: MBP cleaved by TEVp, splayed Y: X1 1-25 paired with X2 26-50, 25 nt unpaired arms.

As a reminder, the Kd is a measure of binding affinity in units of concentration.

B1: Y12 (mixed)
DNA 1: GACGCTGCCGAATTCTGGCTTGCTAGGACATCTTTGCCCACGTTGACCCG
DNA 2: GCGATAGTCTCTAGACAGCATGTCCTAGCAAGCCAGAATTCGGCAGCGTC
B1: the Kd in data set [1] was 16.3 ± 2.16 µM.

B2: X12 (structured_DNA)
DNA 1: GACGCTGCCGAATTCTGGCTTGCTAGGACATCTTTGCCCACGTTGACCCG
DNA 2: CGGGTCAACGTGGGCAAAGATGTCCTAGCAATGTAATCGTCTATGACGTC
DNA 3: GACGTCATAGACGATTACATTGCTAGGACATGCTGTCTAGAGACTATCGC
DNA 4: GCGATAGTCTCTAGACAGCATGTCCTAGCAAGCCAGAATTCGGCAGCGTC
For the molecule B2, in data set [2] (four-way Holliday junction with 12-bp mobile homologous core), the binding result is “binds”.

B3: pre-X12 (mixed)
DNA 1: GACGCTGCCGAATTCTGGCTTGCTAGGACATCTTTGCCCACGTTGACCCG
DNA 2: CGGGTCAACGTGGGCAAAGATGTCCTAGCAATGTAATCGTCTATGACGTC
DNA 3: GCGATAGTCTCTAGACAGCATGTCCTAGCAAGCCAGAATTCGGCAGCGTC
Consider B3, for which the binding result in data set [2] (three-strand junction: X1 1-25 with X4 26-50, X1 26-50 with X2 1-25, X2 3' and X4 5' arms single-stranded) is reported as “binds”.

B4: OsGLK1-Y12 (mixed)
DNA 1: CGTCGATGACATAGACTTCGGGGACTTCTTCCTGAGGCTGGAGGACGGTG
DNA 2: GAAGTCGGTGAAGATCTCGGCCGGGGTCCCCGAAGTCTATGTCATCGACG
B4: in data set [3] (label: 5' Cy5 on GLK1 X1), the binding result is given as “binds”.

B5: OsGLK2-Y12 (mixed)
DNA 1: GAAGAAGAAGGACGACGAGGAAAGGTCGTCGTCGTTGCCGGAGGAGAAAG
DNA 2: CTCCGTCGTCACCGCGCTCAGGACCCCTTTCCTCGTCGTCCTTCTTCTTC
For the molecule B5, in data set [3] (label: 5' Cy5 on GLK2 X1), the binding result is reported as “binds”.
